The values that follow come from PMC3285688, “Active Site Mutations Change the Cleavage Specificity of Neprilysin” (PLoS ONE, 2012).

Holding throughout (experiment): enzyme kinetics, competitive (alternate substrate) inhibition of Glut-Ala-Ala-Phe-MNA hydrolysis, Dixon plot; insulin B chain varied from 1 to 40 µM against hydrolysis of the fluorogenic substrate Glut-Ala-Ala-Phe-MNA by NEP or mutant; Ki from ID50 = Ki(1+[S]/Km); 37°C, 20 mM MES buffer, pH 6.5
In test [1] the target is secreted form of human neprilysin (shNEP), wild type (human) (UniProt P08473).
Test [2] addresses secreted form of human neprilysin, mutant F563I (human).
The target in test [3] is secreted form of human neprilysin, mutant F563L (human).
For test [4], the target named is secreted form of human neprilysin, mutant F563M (human).
Test [5] deals with secreted form of human neprilysin, mutant F563V (human).

Chain of insulin B chain (P01317 25-54): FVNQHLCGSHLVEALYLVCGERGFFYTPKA

Consider “insulin B chain (from UniProt P01317 25-54) (peptide)”, for which the Ki (as a rule, a measure of affinity in units of concentration, obtained from inhibition or displacement) in test [1] was 1.9 µM; in test [2] it was 2.5 µM; in test [3] it was 1.5 µM; in test [4], 1.2 µM; in test [5] it was 1 µM.
